Measurements taken from patent US20230312744A1, “Modulatory Substance of Tumor Immune Microenvironment, and Preventive, Diagnostic and/or Therapeutic Utilization of the Same” (The University Of Tokyo, priority 2020, published 2023).

Tests used:
SL4 tumors = test: Proliferation assay of subcutaneously transplanted SL4 tumor in C57BL/6 mice (tumor volume); type: in vivo; details: 200 μg/mouse intraperitoneally every other day from Day 1 after transplantation, vs control IgG, FIG. 13(a)
Protocol: (§1) In FIG. 13(a), SL4 cells (1×10^5 cells) were subcutaneously transplanted into C57BL/6 mice. The monoclonal antibody (55F3) (n=5) reacting against TCTP or control IgG (n=6) was intraperitoneally administered to the mice, every other day from one day after the transplantation (200 μg/mouse). The tumor volume was measured over time. In FIG. 13(b), on Day 13 after the transplantation, single cell suspensions were prepared from tumors, and were then subjected to a flow cytometry analysis (n=5). […] In FIG. 13(c), SL4 cells (1×10^5 cells) were subcutaneously transplanted into C57BL/6 mice (n=6). After the transplantation, DHA (50 mg/kg) was intraperitoneally […] into the mice every day. The tumor volume was measured over time. In FIG. 13(d), SL4 cells (1×10^5 cells) were subcutaneously transplanted into C57BL/6 mice (n=6). […] The tumor volume was measured over time. […] In FIG. 13(f), the amount of TCTP in sera derived from healthy subjects (people who are not affected with cancer) (n=5) and colorectal cancer patients (n=14) was quantified by immunoblotting. […] In FIG. 13 (g), (right view) the relative staining intensity by the anti-TCTP antibody was semi-quantified, and the staining intensity of the colorectal cancer tissues was compared with the staining intensity of the normal large intestinal tissues (n=45). […]

PMN-MDSCs in the TIME = test: Flow cytometry of tumor-infiltrating cells from SL4 tumors (PMN-MDSCs in CD45+ cells); type: in vivo; details: 55F3 200 μg/mouse i.p., Day 13 after transplantation, ratio of PMN-MDSCs to CD45+ cells, vs control IgG
Protocol: as §1, with “time.” for “time. In FIG. 13(d), SL4 cells (1×10^5 cells) were subcutaneously transplanted into C57BL/6 mice (n=6).”
Tumor-infiltrating cells were recovered after subcutaneous transplantation of a tumor into mice, and were then analyzed by flow cytometry. […]

B1: 55F3: Mouse monoclonal antibody against human TCTP peptide SEQ ID NO: 25; CDRs SEQ ID NO: 1-6, VH SEQ ID NO: 19, VL SEQ ID NO: 22 (antibody, listed as Mus musculus)
VH: MRVLILLWLFTAFPGILSDVQLQESGPGLVKPSQSLSLTCTATGYSIASDYAWNWIRQFPGNKLEWMGYINYSGSTGYNPSLKSRISITRDTSKNQFFLQLNSVTTEDTATYYCARFEAGYWGQGTTLTVSSAKTTPPSVYPLAPGSAAQTNSMVTLGCLVKGYFPEPVT
VL: MDMRTPAQFLGILLLWFPGIKCDIKMTQSPSSMSASLGERVTITCKASQDINRYLSWFQQKPGKSPKTLIYRANRLVDGVPSRFSGSGSGQDYSLTISSLEYGDMGIYYCLQYNEFPLTFGAGTKLELKRADAAPTVSIFPPSSEQLTSGGASVVCFLN
SL4 tumors
  proliferation speed of SL4 tumor cells (tumor volume): decreased
PMN-MDSCs in the TIME
  amount of PMN-MDSCs in the TIME: decreased
